As a reminder, the Kd is the constant that tells how readily two partners part at equilibrium. A high value points to weaker binding. As usually defined, the koff is a measure of how fast the partners let go of each other. High values mean fast dissociation, low ones slow dissociation. What is called kon is the second-order rate constant of association. Read a low kon as slow association.

The results in this text go back to patent US20130053549A1 (UCB, published 2013).

Assay [1] addresses T1, human serum albumin (human, UniProt P02768 25-609).
T1 construct: Bought protein; also called HSA
The assay is described as follows: SPR, Biacore T100; sample captured by anti-human CH1 antibody, HSA as analyte. Background: Surface plasmon resonance follows binding to a sensor surface in real time, without labels.
Experimental: (§1) Covalent immobilisation of the capture antibody was achieved by standard amine coupling chemistry.
(§2) After each cycle, the capture surface was regenerated with 2×1 min injections of 40 mM HCl followed by 30 s of 5 mM NaOH. The flow rates used were 10 μl/min for capture, 30 μl/min for association and dissociation phases, and 10 μl/min for regeneration.
A blank flow-cell was used for reference subtraction and buffer-blank injections were included to subtract instrument noise and drift.

Assay [2] addresses T2, IL-6 (UniProt P05231 30-212, limits assumed). The assay is described as follows: SPR, Biacore T100; sample captured by anti-human CH1 antibody, IL-6 as analyte.
Assay [3] concerns the target T2, IL-6. As to the kind of experiment: SPR, Biacore T100; sample captured by anti-human CH1 antibody, IL-6 as analyte; kinetics not given.
Assay [4] deals with T1, human serum albumin. The assay is described as follows: SPR, Biacore T100; sample captured by anti-human CH1 antibody, HSA as analyte, 1:1 fit.
Experimental: as §1, §2
Kinetic parameters were determined by simultaneous global-fitting of the resulting sensorgrams to a standard 1:1 binding model using Biacore T100 Evaluation Software v2.0.1.
The target of assay [5] is T1, human serum albumin. The assay is described as follows: SPR, Biacore 3000; construct captured by anti-human CH1 antibody, 50 nM HSA alone.
Experimental: as §1, §2
Assay [6] addresses T3, IL13 (UniProt P35225 35-146, limits assumed).
T3 construct: also called IL13 (R&D 213IL)
The assay is described as follows: SPR, Biacore 3000; sample captured by anti-human CH1 antibody, IL13 as analyte.
Experimental: as §1, §2
(§3) Kinetic parameters were determined by simultaneous global-fitting of the resulting sensorgrams to a standard 1:1 binding model using Biacore 3000 Evaluation Software v3.2

For assay [7], the target named is T4, Ox40/mFc (UniProt P43489 29-214).
T4 construct: Bought fusion protein; also called Ox40/mFc (AXXORA 1588)
T4 sequence (looked up): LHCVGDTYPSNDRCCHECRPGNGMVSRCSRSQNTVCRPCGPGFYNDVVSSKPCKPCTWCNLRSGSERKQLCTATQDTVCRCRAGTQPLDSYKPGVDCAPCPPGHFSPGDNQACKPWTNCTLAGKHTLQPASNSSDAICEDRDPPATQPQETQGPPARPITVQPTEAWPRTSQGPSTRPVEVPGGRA
The assay is described as follows: SPR, Biacore 3000; construct captured by anti-human CH1 antibody, 20 nM Ox40/mFc alone.
Experimental: as §1, §2

Assay [8] addresses T5, TNF (human, UniProt P01375 77-233).
T5 construct: also called TNF (Strathmann hTNFa); hTNFa
As to the kind of experiment: SPR, Biacore 3000; sample captured by anti-human CH1 antibody, TNF as analyte.
Experimental: as §1, §2, §3

Substitutions are numbered along the chain they refer to.

B1: A26Fab 645Fv 1G4S 1189Fv (other)
heavy: EVQLVESGGGLVQPGGSLRLSCAASGFTFTNYGIHWIRQAPGKGLEWVASISPSGGLTYYRDSVKGRFTISRDDAKNSPYLQMNSLRAEDTAVYYCATGGEGIFDYWGQGTLVTVSSASTKGPSVFPLAPSSKSTSGGTAALGCLVKDYFPEPVTVSWNSGALTSGVHTFPAVLQSSGLYSLSSVVTVPSSSLGTQTYICNVNHKPSNTKVDKKVEPKSCSGGGGSGGGGSGGGGSEVQLLESGGGLVQPGGSLRLSCAVSGIDLSNYAINWVRQAPGKCLEWIGIIWASGTTFYATWAKGRFTISRDSTTVYLQMNSLRAEDTAVYYCARTVPGYSTAPYFDLWGQGTLVTVSSGGGGSEVQLVESGGGLVQPGGSLRLSCAASGFTFNDYDMAWVRQAPGKCLEWVASITPSGGGTYYRDSVKGRFTISRDNAKNSLYLQMNSLRAEDTAVYYCARHGYTLDYFEYWGQGTMVTVSS
light: DIQMTQSPSSLSASVGDRVTITCRATQSIYNALAWYQQKPGKAPKLLIYNANTLHTGVPSRFSASGSGTDSTLTISSLQPEDFATYYCQQYYDYPLTFGGGTKVEIKRTVAAPSVFIFPPSDEQLKSGTASVVCLLNNFYPREAKVQWKVDNALQSGNSQESVTEQDSKDSTYSLSSTLTLSKADYEKHKVYACEVTHQGLSSPVTKSFNRGECSGGGGSGGGGSGGGGSDIVMTQSPSSVSASVGDRVTITCQSSPSVWSNFLSWYQQKPGKAPKLLIYEASKLTSGVPSRFKGSGSGTDFTLTISSLQPEDFATYYCGGGYSSISDTTFGCGTKVEIKGGGGSDIQMTQSPSSLSASVGDRVTITCLASEGISNDLAWYQQKPGKAPKLLIYDATRLQDGVPSRFSGSGSGTDFTLTISSLQPEDFATYYCQQSYKYPWTFGCGTKLEIK
notes: Trispecific Fab-Fv-Fv (OX40, HSA, IL-6); second linker 1xG4S; HEK293 supernatant; also called A26Fab-645Fv-1189Fv; FabFvFv
For the molecule B1, the Stoichiometry in assay [1] came out at 0.39. The molecule also gave a Stoichiometry in assay [2] of 0.06. In assay [3], this molecule had an RU of binding of 1 RU. Also, in assay [4], the Kd was 11.3 nM, the koff amounted to 0.000379 s⁻¹ and the association rate constant (kon) was 33400 M⁻¹ s⁻¹.

B2: A26Fab-(3xG4S)-645dsFv-(3xG4S)-652dsFv (other)
heavy: EVQLVESGGGLVQPGGSLRLSCAASGFTFTNYGIHWIRQAPGKGLEWVASISPSGGLTYYRDSVKGRFTISRDDAKNSPYLQMNSLRAEDTAVYYCATGGEGIFDYWGQGTLVTVSSASTKGPSVFPLAPSSKSTSGGTAALGCLVKDYFPEPVTVSWNSGALTSGVHTFPAVLQSSGLYSLSSVVTVPSSSLGTQTYICNVNHKPSNTKVDKKVEPKSCSGGGGSGGGGSGGGGSEVQLLESGGGLVQPGGSLRLSCAVSGIDLSNYAINWVRQAPGKCLEWIGIIWASGTTFYATWAKGRFTISRDSTTVYLQMNSLRAEDTAVYYCARTVPGYSTAPYFDLWGQGTLVTVSSGGGGSGGGGSGGGGSQVTLKESGPVLVKPTETLTLTCTVSGFSLTNYHVQWIRQPPGKCLEWLGVMWSDGDTSFNSVLKSRLTISRDTSKSQVVLTMTNMDPVDTATYYCARDGTIAAMDYFDYWGQGTLVTVSS
light: DIQMTQSPSSLSASVGDRVTITCRATQSIYNALAWYQQKPGKAPKLLIYNANTLHTGVPSRFSASGSGTDSTLTISSLQPEDFATYYCQQYYDYPLTFGGGTKVEIKRTVAAPSVFIFPPSDEQLKSGTASVVCLLNNFYPREAKVQWKVDNALQSGNSQESVTEQDSKDSTYSLSSTLTLSKADYEKHKVYACEVTHQGLSSPVTKSFNRGECSGGGGSGGGGSGGGGSDIVMTQSPSSVSASVGDRVTITCQSSPSVWSNFLSWYQQKPGKAPKLLIYEASKLTSGVPSRFKGSGSGTDFTLTISSLQPEDFATYYCGGGYSSISDTTFGCGTKVEIKGGGGSGGGGSGGGGSDIQMTQSPSSLSASVGDRVTITCLASEDISNYLAWYQQKPGKAPKLLIYHTSRLQDGVPSRFSGSGSGTDFTLTISSLQPEDFATYYCQQGYRFPLTFGCGTKVEIKR
notes: Trispecific Fab-Fv-Fv (OX40, HSA, IL13); terminal 652 Fv with a disulfide (+DS read as dsFv); HEK293 supernatant; also called A26-645-652+DS; A26Fab-645Fv-652/870Fv
For the molecule B2, in assay [5], the “Response RU” value worked out at 11 RU. Also, in assay [6], the “Affinity (fold loss against the parent)” value amounted to 2 fold and the Stoichiometry came out at 0.88. In addition, in assay [7], the “Response RU” value stood at 39 RU.

B3: A26Fab-(3xG4S)-645dsFv-(3xG4S)-652Fv (other)
heavy: B2 heavy with C414A
light: DIQMTQSPSSLSASVGDRVTITCRATQSIYNALAWYQQKPGKAPKLLIYNANTLHTGVPSRFSASGSGTDSTLTISSLQPEDFATYYCQQYYDYPLTFGGGTKVEIKRTVAAPSVFIFPPSDEQLKSGTASVVCLLNNFYPREAKVQWKVDNALQSGNSQESVTEQDSKDSTYSLSSTLTLSKADYEKHKVYACEVTHQGLSSPVTKSFNRGECSGGGGSGGGGSGGGGSDIVMTQSPSSVSASVGDRVTITCQSSPSVWSNFLSWYQQKPGKAPKLLIYEASKLTSGVPSRFKGSGSGTDFTLTISSLQPEDFATYYCGGGYSSISDTTFGCGTKVEIKGGGGSGGGGSGGGGSDIQMTQSPSSLSASVGDRVTITCLASEDISNYLAWYQQKPGKAPKLLIYHTSRLQDGVPSRFSGSGSGTDFTLTISSLQPEDFATYYCQQGYRFPLTFGGGTKVEIK
notes: Trispecific Fab-Fv-Fv (OX40, HSA, IL13); terminal 652 Fv without a disulfide (-DS read as Fv); HEK293 supernatant; also called A26-645-652-DS; A26Fab-645Fv-652/870Fv
For B3, the entries for the “Response RU” value in assay [5] and in assay [7] were 12 RU and 42 RU, respectively. The molecule further registered a Stoichiometry in assay [6] of 0.95.

B4: A26Fab-(3xG4S)-645dsFv-(3xG4S)-870dsFv (other)
heavy: EVQLVESGGGLVQPGGSLRLSCAASGFTFTNYGIHWIRQAPGKGLEWVASISPSGGLTYYRDSVKGRFTISRDDAKNSPYLQMNSLRAEDTAVYYCATGGEGIFDYWGQGTLVTVSSASTKGPSVFPLAPSSKSTSGGTAALGCLVKDYFPEPVTVSWNSGALTSGVHTFPAVLQSSGLYSLSSVVTVPSSSLGTQTYICNVNHKPSNTKVDKKVEPKSCSGGGGSGGGGSGGGGSEVQLLESGGGLVQPGGSLRLSCAVSGIDLSNYAINWVRQAPGKCLEWIGIIWASGTTFYATWAKGRFTISRDSTTVYLQMNSLRAEDTAVYYCARTVPGYSTAPYFDLWGQGTLVTVSSGGGGSGGGGSGGGGSEVQLVESGGGLVQPGGSLRLSCAASGYVFTDYGMNWVRQAPGKCLEWMGWINTYIGEPIYADSVKGRFTFSLDTSKSTAYLQMNSLRAEDTAVYYCARGYRSYAMDYWGQGTLVTVSS
light: DIQMTQSPSSLSASVGDRVTITCRATQSIYNALAWYQQKPGKAPKLLIYNANTLHTGVPSRFSASGSGTDSTLTISSLQPEDFATYYCQQYYDYPLTFGGGTKVEIKRTVAAPSVFIFPPSDEQLKSGTASVVCLLNNFYPREAKVQWKVDNALQSGNSQESVTEQDSKDSTYSLSSTLTLSKADYEKHKVYACEVTHQGLSSPVTKSFNRGECSGGGGSGGGGSGGGGSDIVMTQSPSSVSASVGDRVTITCQSSPSVWSNFLSWYQQKPGKAPKLLIYEASKLTSGVPSRFKGSGSGTDFTLTISSLQPEDFATYYCGGGYSSISDTTFGCGTKVEIKGGGGSGGGGSGGGGSDIQMTQSPSSLSASVGDRVTITCKASQNVGTNVAWYQQKPGKAPKALIYSASFLYSGVPYRFSGSGSGTDFTLTISSLQPEDFATYYCQQYNIYPLTFGCGTKVEIKR
notes: Trispecific Fab-Fv-Fv (OX40, HSA, TNF); terminal 870 Fv with a disulfide (+DS read as dsFv); HEK293 supernatant; also called A26-645-870+DS; A26Fab-645Fv-652/870Fv
Turning to B4, the “Response RU” value stood at 10 RU in assay [5] and 32 RU in assay [7]. The “Affinity (fold loss against the parent)” value in assay [8] was found to be 2 fold. Moreover, the Stoichiometry in assay [8] is 0.42.

B5: A26Fab-(3xG4S)-645dsFv-(3xG4S)-870Fv (other)
heavy: B4 heavy with C414G
light: DIQMTQSPSSLSASVGDRVTITCRATQSIYNALAWYQQKPGKAPKLLIYNANTLHTGVPSRFSASGSGTDSTLTISSLQPEDFATYYCQQYYDYPLTFGGGTKVEIKRTVAAPSVFIFPPSDEQLKSGTASVVCLLNNFYPREAKVQWKVDNALQSGNSQESVTEQDSKDSTYSLSSTLTLSKADYEKHKVYACEVTHQGLSSPVTKSFNRGECSGGGGSGGGGSGGGGSDIVMTQSPSSVSASVGDRVTITCQSSPSVWSNFLSWYQQKPGKAPKLLIYEASKLTSGVPSRFKGSGSGTDFTLTISSLQPEDFATYYCGGGYSSISDTTFGCGTKVEIKGGGGSGGGGSGGGGSDIQMTQSPSSLSASVGDRVTITCKASQNVGTNVAWYQQKPGKAPKALIYSASFLYSGVPYRFSGSGSGTDFTLTISSLQPEDFATYYCQQYNIYPLTFGQGTKVEIK
notes: Trispecific Fab-Fv-Fv (OX40, HSA, TNF); terminal 870 Fv without a disulfide (-DS read as Fv); HEK293 supernatant; also called A26-645-870-DS; A26Fab-645Fv-652/870Fv
In the case of B5, in assay [5], the “Response RU” value is 11 RU. Also, in assay [8], the “Affinity (fold loss against the parent)” value turned out to be 2 fold and the Stoichiometry was found to be 0.39. Besides, in assay [7], the “Response RU” value worked out at 31 RU.
